The values that follow come from patent US10981980B2, “Polypeptide targeting aptamers for characterization, capture, and clinical management of circulating tumor cells” (Counterpoint Biomedica LLC, priority 2016, dated 2021).

*: point of attachment. FITC = O=C1OC2(c3ccc(O)cc3Oc3cc(O)ccc32)c2ccc(NC(=S)*)cc21; Ahx = NCCCCCC(=O)O

For the first assay, the target named is purified recombinant His-tagged VIM (Homo sapiens, UniProt P08670). Nature of the assay: IMAC pull-down / comparative evaluation of vimentin-binding aptamers (net fluorescent signal with and without r-vimentin). The conditions noted are these: His-Tag beads, FIG. 5. The text has this: FIG. 4 is a schematic and photograph of a IMAC Pull-down assay. The numbers 1, 2, 4, 7, 9, 11, 14, 16, 17, and 18 under the tubes correspond to aptamers consisting of SEQ ID NOs: 1, 2, 4, 7, 9, 11, 14, 16, 17, and 18, respectively. IMAC=[…]/Ni- or Metal-chelate chromatography.
purified recombinant His-tagged VIM, sequence (P08670 whole entry): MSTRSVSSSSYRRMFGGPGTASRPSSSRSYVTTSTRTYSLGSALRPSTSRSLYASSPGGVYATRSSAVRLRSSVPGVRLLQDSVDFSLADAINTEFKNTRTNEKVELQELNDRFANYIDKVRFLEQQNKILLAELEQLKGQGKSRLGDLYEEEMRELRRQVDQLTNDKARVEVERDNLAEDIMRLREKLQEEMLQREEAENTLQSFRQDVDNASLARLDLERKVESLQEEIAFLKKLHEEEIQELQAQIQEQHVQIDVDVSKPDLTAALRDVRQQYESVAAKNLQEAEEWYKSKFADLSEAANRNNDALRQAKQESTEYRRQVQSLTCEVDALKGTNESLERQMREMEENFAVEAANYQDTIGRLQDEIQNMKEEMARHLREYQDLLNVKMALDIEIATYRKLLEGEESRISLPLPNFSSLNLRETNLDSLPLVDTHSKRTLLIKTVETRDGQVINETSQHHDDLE
FIG. 5 is a graph showing a comparative evaluation of vimentin-binding aptamers. The numbers 1, 2, 4, 7, 9, 11, 14, 16, 17, 18, 22, and 23 under the graph correspond to aptamers consisting of SEQ ID NOs: 1, 2, 4, 7, 9, 11, 14, 16, 17, 18, 49, and 51, respectively.
Aptamers containing VIM binding domains were allowed to associate with purified recombinant His-tagged VIM, followed by the addition of His-Tag beads, which were then used to concentrate the His-VIM and associated aptamers (see FIG. 4). Numbers below the tubes in FIG. 4 reading from left to right, top to bottom, correspond to aptamers that include SEQ ID NOs: 1, 2, 4, 7, 9, 11, 14, 16, 17, and 18, respectively.
The comparative binding efficiency of the aptamers was evaluated by quantifying the net fluorescent signal in the presence and absence of vimentin (e.g., r-vimentin)(see FIG. 5). Numbers 1, 2, 4, 7, 9, 11, 14, 16, 17, 18, 22, and 23 below the graph correspond to aptamers that include SEQ ID NOs: 1, […], 4, 7, […], 11, 14, 16, 17, 18, 49, and 51, respectively. VIM-binding sequences from Phage Display studies were positive.
Consider “(FITC-Ahx)AGKKPRVTVTNVFLYNRPLNSTE-free acid ({FITC-Ahx}-AGKKPRVTVTNVFLYNRPLNSTE-OH; SMILES CC(C)C[C@H](NC(=O)[C@H](Cc1ccccc1)NC(=O)[C@@H](NC(=O)[C@H](CC(N)=O)NC(=O)[C@@H](NC(=O)[C@@H](NC(=O)[C@@H](NC(=O)[C@@H](NC(=O)[C@H](CCCNC(=N)N)NC(=O)[C@@H]1CCCN1C(=O)[C@H](CCCCN)NC(=O)[C@H](CCCCN)NC(=O)CNC(=O)[C@H](C)NC(=O)CCCCCNC(=S)Nc1ccc2c(c1)C(=O)OC21c2ccc(O)cc2Oc2cc(O)ccc21)C(C)C)[C@@H](C)O)C(C)C)[C@@H](C)O)C(C)C)C(=O)N[C@@H](Cc1ccc(O)cc1)C(=O)N[C@@H](CC(N)=O)C(=O)N[C@@H](CCCNC(=N)N)C(=O)N1CCC[C@H]1C(=O)N[C@@H](CC(C)C)C(=O)N[C@@H](CC(N)=O)C(=O)N[C@@H](CO)C(=O)N[C@H](C(=O)N[C@@H](CCC(=O)O)C(=O)O)[C@@H](C)O) [Aptamer #22]”, for which the “comparative binding efficiency (net fluorescent signal in the presence and absence of vimentin)” value (from here on “comparative binding efficiency”) was “Strong binding”. As to “(FITC-Ahx)AGKKPSVTVTNVFLYNRPLNSTE-free acid ({FITC-Ahx}-AGKKPSVTVTNVFLYNRPLNSTE-OH; SMILES CC(C)C[C@H](NC(=O)[C@H](Cc1ccccc1)NC(=O)[C@@H](NC(=O)[C@H](CC(N)=O)NC(=O)[C@@H](NC(=O)[C@@H](NC(=O)[C@@H](NC(=O)[C@@H](NC(=O)[C@H](CO)NC(=O)[C@@H]1CCCN1C(=O)[C@H](CCCCN)NC(=O)[C@H](CCCCN)NC(=O)CNC(=O)[C@H](C)NC(=O)CCCCCNC(=S)Nc1ccc2c(c1)C(=O)OC21c2ccc(O)cc2Oc2cc(O)ccc21)C(C)C)[C@@H](C)O)C(C)C)[C@@H](C)O)C(C)C)C(=O)N[C@@H](Cc1ccc(O)cc1)C(=O)N[C@@H](CC(N)=O)C(=O)N[C@@H](CCCNC(=N)N)C(=O)N1CCC[C@H]1C(=O)N[C@@H](CC(C)C)C(=O)N[C@@H](CC(N)=O)C(=O)N[C@@H](CO)C(=O)N[C@H](C(=O)N[C@@H](CCC(=O)O)C(=O)O)[C@@H](C)O) [Aptamer #23]”, the “comparative binding efficiency” value is “Strong binding”. For “acetyl-TRKRIRIQRGPGRAFVTIGGK(FITC)-amide (Ac-TRKRIRIQRGPGRAFVTIGGK(FITC)-NH2; SMILES CC[C@H](C)[C@H](NC(=O)[C@H](CCCNC(=N)N)NC(=O)[C@@H](NC(=O)[C@H](CCCNC(=N)N)NC(=O)[C@H](CCCCN)NC(=O)[C@H](CCCNC(=N)N)NC(=O)[C@@H](NC(C)=O)[C@@H](C)O)[C@@H](C)CC)C(=O)N[C@@H](CCC(N)=O)C(=O)N[C@@H](CCCNC(=N)N)C(=O)NCC(=O)N1CCC[C@H]1C(=O)NCC(=O)N[C@@H](CCCNC(=N)N)C(=O)N[C@@H](C)C(=O)N[C@@H](Cc1ccccc1)C(=O)N[C@H](C(=O)N[C@H](C(=O)N[C@H](C(=O)NCC(=O)NCC(=O)N[C@@H](CCCCNC(=S)Nc1ccc2c(c1)C(=O)OC21c2ccc(O)cc2Oc2cc(O)ccc21)C(N)=O)[C@@H](C)CC)[C@@H](C)O)C(C)C) [Aptamer #17]”, the “comparative binding efficiency” value was “Strong binding”.

The test system of another assay is collagen-agarose beads. Nature of the assay: Collagen agarose binding assay. The conditions noted are these: loaded in PBS pH 7.4, stringent washing, 10 column volumes of 1M NaCl in PBST, FIG. 3. From the text:
FIG. 3 is a schematic and a photograph of a collagen agarose binding assay. Apt #1 is an aptamer consisting of SEQ ID NO: 1; Apt #7 is an aptamer consisting of SEQ ID NO: 7; Apt #19 is an aptamer consisting of SEQ ID NO: 19; and Apt #20 is an aptamer consisting of SEQ ID NO: 20. CBD=collagen-binding domain; CBD1=bovine vWF sequence comprising SEQ ID NO: 22; CBD2=human vWF sequence comprising SEQ ID NO: 23. […] Aptamers and reporters were mixed and loaded under mild binding conditions (PBS, pH 7.4), followed by washing with increasing concentrations of salt and/or detergent (PBST, using Tween 20). Stringent washing generally includes 10 column volumes of 1M NaCl in PBST, pH 7.4).
Turning to “acetyl-RRGVRVAWREPGRMELNMPHGGSGK(FITC)-amide (Ac-RRGVRVAWREPGRMELNMPHGGSGK(FITC)-NH2; SMILES CSCC[C@H](NC(=O)[C@H](CCCNC(=N)N)NC(=O)CNC(=O)[C@@H]1CCCN1C(=O)[C@H](CCC(=O)O)NC(=O)[C@H](CCCNC(=N)N)NC(=O)[C@H](Cc1c[nH]c2ccccc12)NC(=O)[C@H](C)NC(=O)[C@@H](NC(=O)[C@H](CCCNC(=N)N)NC(=O)[C@@H](NC(=O)CNC(=O)[C@H](CCCNC(=N)N)NC(=O)[C@H](CCCNC(=N)N)NC(C)=O)C(C)C)C(C)C)C(=O)N[C@@H](CCC(=O)O)C(=O)N[C@@H](CC(C)C)C(=O)N[C@@H](CC(N)=O)C(=O)N[C@@H](CCSC)C(=O)N1CCC[C@H]1C(=O)N[C@@H](Cc1c[nH]cn1)C(=O)NCC(=O)NCC(=O)N[C@@H](CO)C(=O)NCC(=O)N[C@@H](CCCCNC(=S)Nc1ccc2c(c1)C(=O)OC21c2ccc(O)cc2Oc2cc(O)ccc21)C(N)=O) [Aptamer #20]”, the “binding to collagen-agarose beads” value is “bind tightly”. In the case of “acetyl-STRSVSSSSYRRMFGGPGTASK(FITC)-amide (Ac-STRSVSSSSYRRMFGGPGTASK(FITC)-NH2; SMILES CSCC[C@H](NC(=O)[C@H](CCCNC(=N)N)NC(=O)[C@H](CCCNC(=N)N)NC(=O)[C@H](Cc1ccc(O)cc1)NC(=O)[C@H](CO)NC(=O)[C@H](CO)NC(=O)[C@H](CO)NC(=O)[C@H](CO)NC(=O)[C@@H](NC(=O)[C@H](CO)NC(=O)[C@H](CCCNC(=N)N)NC(=O)[C@@H](NC(=O)[C@H](CO)NC(C)=O)[C@@H](C)O)C(C)C)C(=O)N[C@@H](Cc1ccccc1)C(=O)NCC(=O)NCC(=O)N1CCC[C@H]1C(=O)NCC(=O)N[C@H](C(=O)N[C@@H](C)C(=O)N[C@@H](CO)C(=O)N[C@@H](CCCCNC(=S)Nc1ccc2c(c1)C(=O)OC21c2ccc(O)cc2Oc2cc(O)ccc21)C(N)=O)[C@@H](C)O) [Aptamer #9]”, the “binding to collagen-agarose beads” value was “bind tightly”.

Take “acetyl-VNTANSTGGSGARRGVRVAWREPGRMELNMPHGGSGK(FITC)-amide (Ac-VNTANSTGGSGARRGVRVAWREPGRMELNMPHGGSGK(FITC)-NH2; SMILES CSCC[C@H](NC(=O)[C@H](CCCNC(=N)N)NC(=O)CNC(=O)[C@@H]1CCCN1C(=O)[C@H](CCC(=O)O)NC(=O)[C@H](CCCNC(=N)N)NC(=O)[C@H](Cc1c[nH]c2ccccc12)NC(=O)[C@H](C)NC(=O)[C@@H](NC(=O)[C@H](CCCNC(=N)N)NC(=O)[C@@H](NC(=O)CNC(=O)[C@H](CCCNC(=N)N)NC(=O)[C@H](CCCNC(=N)N)NC(=O)[C@H](C)NC(=O)CNC(=O)[C@H](CO)NC(=O)CNC(=O)CNC(=O)[C@@H](NC(=O)[C@H](CO)NC(=O)[C@H](CC(N)=O)NC(=O)[C@H](C)NC(=O)[C@@H](NC(=O)[C@H](CC(N)=O)NC(=O)[C@@H](NC(C)=O)C(C)C)[C@@H](C)O)[C@@H](C)O)C(C)C)C(C)C)C(=O)N[C@@H](CCC(=O)O)C(=O)N[C@@H](CC(C)C)C(=O)N[C@@H](CC(N)=O)C(=O)N[C@@H](CCSC)C(=O)N1CCC[C@H]1C(=O)N[C@@H](Cc1c[nH]cn1)C(=O)NCC(=O)NCC(=O)N[C@@H](CO)C(=O)NCC(=O)N[C@@H](CCCCNC(=S)Nc1ccc2c(c1)C(=O)OC21c2ccc(O)cc2Oc2cc(O)ccc21)C(N)=O) [Aptamer #7]”: the “binding to collagen-agarose beads” value is reported as “bind tightly”.
